The assay has as its target VEEV p62-E1 (Venezuelan equine encephalitis virus, TrD strain) (UniProt P09592). Description: surface plasmon resonance (Biacore T200), […].

As usually defined, the Kd is the constant that tells how readily two partners part at equilibrium. Substance “HRV-cleaved monovalent LDLRAD3(D1) (from UniProt A2AR95 18-70) (receptor)” came in with a Kd of 209 nM.

Source of the values: patent US20230183338A1.
